From PMC7605111
Values joined by “and” are separate entries in the source; they are usually repeats but may differ in a detail not shown here. Equal entries are not always repeated.

Key:
[1] = target: class II fructose-1,6-bisphosphatase from Francisella tularensis (Francisella tularensis); experiment: SEC
[2] = target: class II fructose-1,6-bisphosphatase from Francisella tularensis (Francisella tularensis); experiment: crystal structure

## class II fructose-1,6-bisphosphatase from Francisella tularensis (enzyme)
[1]
  stoichiometry N: 2 and 4
[2]
  stoichiometry N: 4
